These results are taken from publication PMC4619830.

In this data set the target is T1, SoxR (MerR-type HTH transcriptional regulator) (Acinetobacter baumannii AYE) (UniProt C7FFS1).
T1 sequence: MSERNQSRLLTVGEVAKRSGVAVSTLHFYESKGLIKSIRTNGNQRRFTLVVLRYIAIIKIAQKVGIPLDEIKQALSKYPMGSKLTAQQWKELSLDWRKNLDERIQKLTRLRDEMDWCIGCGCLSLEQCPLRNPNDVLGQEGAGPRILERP
Kind of data set: EMSA. To be noted: not stated (gel shift as described previously, 20).

With “GGCTGCTCGGTATGATGTCGTTAATTAACAGAAGTAAATGCCGCTTCGAGATTTTGTGATGATCAACGAGCGGTATAAAAAAGACAAGTAGAATTAAACAATAAATGTAATTAAGACAAAAACAAAGCGTGATTGAATATTTCCAACAAACCAATAAAAAACCAGTTAACGAGTGTCACTTAAAATTCATGAATTCTTCATGATCATGTCAAACAAAGCA (double strand) [abeD promoter fragment]”, the binding result is given as “binds”.
